Data reported in patent publication US20170226167A1.
Where no end group is shown, it is not given here. [ ]: non-standard residue; d: D form. Met(O) = CS(=O)CC[C@H](N)C(=O)O; pS = N[C@@H](COP(=O)(O)O)C(=O)O

Assays:
[1] = molecular target: Recombinant bovine HSC70 (Stressgen) (bovine) (UniProt P19120); assay: SPR (BIAcore 3000), bovine HSC70 immobilized, peptide at 6.25 µM, 1:1 Langmuir fit
[2] = molecular target: Recombinant bovine HSC70 (Stressgen) (bovine) (UniProt P19120); assay: SPR (BIAcore 3000), bovine HSC70 immobilized, peptide at 12.5 µM, 1:1 Langmuir fit
[3] = molecular target: Recombinant bovine HSC70 (Stressgen) (bovine) (UniProt P19120); assay: SPR (BIAcore 3000), bovine HSC70 immobilized, peptide at 1.56 µM, 1:1 Langmuir fit
[4] = molecular target: Recombinant bovine HSC70 (Stressgen) (bovine) (UniProt P19120); assay: SPR (BIAcore 3000), bovine HSC70 immobilized, peptide as analyte, 1:1 Langmuir fit, 25 C
[5] = molecular target: Recombinant bovine HSC70 (Stressgen) (bovine) (UniProt P19120); assay: SPR (BIAcore 3000), bovine HSC70 immobilized, peptide at 3.12 µM, 1:1 Langmuir fit
[6] = molecular target: Recombinant bovine HSC70 (Stressgen) (bovine) (UniProt P19120); assay: SPR (BIAcore 3000), bovine HSC70 immobilized, peptide at 25 µM, 1:1 Langmuir fit

Recombinant bovine HSC70 (Stressgen) (bovine), sequence (P19120 whole entry): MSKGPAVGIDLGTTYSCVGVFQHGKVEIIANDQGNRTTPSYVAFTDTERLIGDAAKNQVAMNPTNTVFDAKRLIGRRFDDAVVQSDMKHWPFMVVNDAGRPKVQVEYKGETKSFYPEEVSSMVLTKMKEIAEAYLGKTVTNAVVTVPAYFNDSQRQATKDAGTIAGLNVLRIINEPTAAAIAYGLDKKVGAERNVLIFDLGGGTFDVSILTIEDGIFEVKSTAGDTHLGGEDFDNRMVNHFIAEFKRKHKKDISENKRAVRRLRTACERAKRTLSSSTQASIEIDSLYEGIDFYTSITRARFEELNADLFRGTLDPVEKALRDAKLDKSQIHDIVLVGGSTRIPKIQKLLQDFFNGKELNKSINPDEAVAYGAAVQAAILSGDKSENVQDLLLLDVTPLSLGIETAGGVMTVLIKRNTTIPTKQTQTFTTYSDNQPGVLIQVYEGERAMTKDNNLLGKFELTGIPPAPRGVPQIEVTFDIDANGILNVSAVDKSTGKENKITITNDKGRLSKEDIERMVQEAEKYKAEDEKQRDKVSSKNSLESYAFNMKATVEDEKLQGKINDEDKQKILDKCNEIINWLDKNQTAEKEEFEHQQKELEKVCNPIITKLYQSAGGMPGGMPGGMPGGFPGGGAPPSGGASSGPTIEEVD

Binder: RIHMVYSKR[pS]GKPRGYAFIEY [P140 peptide (peptide consisting of SEQ ID NO: 1, in which serine at position 10 is phosphorylated)]
- Ka [1]: 144000 M⁻¹
- Kd [1]: 6.94 µM
- Req (RU) [1]: 39.5 RU
- kobs [1]: 0.00593 s⁻¹
- koff [1]: 0.00312 s⁻¹
- Ka [2]: 144000 M⁻¹
- Kd [2]: 6.94 µM
- Req (RU) [2]: 53.6 RU
- kobs [2]: 0.00874 s⁻¹
- koff [2]: 0.00312 s⁻¹
- Ka [3]: 144000 M⁻¹
- Kd [3]: 6.94 µM
- Req (RU) [3]: 15.3 RU
- kobs [3]: 0.00382 s⁻¹
- koff [3]: 0.00312 s⁻¹
- kon [4]: 450 M⁻¹ s⁻¹
- Ka [5]: 144000 M⁻¹
- Kd [5]: 6.94 µM
- Req (RU) [5]: 25.8 RU
- kobs [5]: 0.00452 s⁻¹
- koff [5]: 0.00312 s⁻¹
- Ka [6]: 144000 M⁻¹
- Kd [6]: 6.94 µM
- Req (RU) [6]: 65.2 RU
- kobs [6]: 0.0144 s⁻¹
- koff [6]: 0.00312 s⁻¹

Binder: RIH[Met(O)]VYSKR[pS]GKPRGYAFIEY
- Ka [1]: 524000 M⁻¹
- Kd [1]: 1.91 µM
- Req (RU) [1]: 29.9 RU
- kobs [1]: 0.0094 s⁻¹
- koff [1]: 0.0022 s⁻¹
- Ka [2]: 524000 M⁻¹
- Kd [2]: 1.91 µM
- Req (RU) [2]: 33.9 RU
- kobs [2]: 0.0166 s⁻¹
- koff [2]: 0.0022 s⁻¹
- Ka [3]: 524000 M⁻¹
- Kd [3]: 1.91 µM
- Req (RU) [3]: 17.6 RU
- kobs [3]: 0.004 s⁻¹
- koff [3]: 0.0022 s⁻¹
- kon [4]: 1150 M⁻¹ s⁻¹
- Ka [5]: 524000 M⁻¹
- Kd [5]: 1.91 µM
- Req (RU) [5]: 24.2 RU
- kobs [5]: 0.0058 s⁻¹
- koff [5]: 0.0022 s⁻¹
- Ka [6]: 524000 M⁻¹
- Kd [6]: 1.91 µM
- Req (RU) [6]: 36.3 RU
- kobs [6]: 0.031 s⁻¹
- koff [6]: 0.0022 s⁻¹
